Experimental data published in patent EP1403367A1, “METHOD OF TESTING DRUG FOR TREATING OR PREVENTING DISEASES SUCH AS HYPERLIPEMIA” (Sankyo Company Limited, priority 2001, dated 2002).

How the values were obtained:
[1] = target: lipoprotein lipase (LPL) originated from a rat fat cell (rat) (UniProt Q06000); assay: cell-based or functional assay
[2] = target: hepatic triacylglycerol lipase (HTGL) in mouse plasma after administering heparin intravenously (mouse) (UniProt P27656); assay: cell-based or functional assay
[3] = target: lipoprotein lipase (LPL) in mouse plasma after administering heparin intravenously (mouse) (UniProt P11152); assay: cell-based or functional assay
[4] = test system: rat "angiopoietin-related protein 3" gene; assay: TaqMan PCR quantification of liver angiopoietin-related protein 3 gene expression after bezafibrate in feed; type: in vivo, Zucker fatty rats; conditions: 0.3% in F2 powder feed for seven days, compared to the control group, corrected with 18S ribosome
Excerpt: (§1) For seven days, the antilipemic bezafibrate (manufactured by Sigma) mixed with F2 powder feed (manufactured by Funabashi Noujou) at 0.3% of concentration was administrated to two Zucker fatty rats (purchased from Nihon Charles River) of age 11 weeks.
To the two rats in the control group only F2 powder feed was given. After collecting blood samples from each of the rats under both conditions, the liver thereof was extracted, put in liquid nitrogen immediately to be frozen rapidly, and kept at -80 °C. 5 ml of TRIzol reagent (manufactured by Gibco BRL) were added to 0.1 g of the liver tissue obtained, and it was homogenized on ice using an ultra high-speed homogenizer (Polytoron, manufactured by ckinematica) (at dial 10 for 2 minutes). After incubation for 5 minutes at a room temperature, 1 ml of chloroform was added and mixed vigorously for 15 seconds. […]
A single stranded cDNA was produced according to the following procedures. […] After completion of the reaction, 29 µl of ribonuclease-free purified water was added to each of the samples, and diluted with ribonuclease-free purified water a further 5 times for use in the following quantification. The single-stranded cDNA solution for creation of a calibration-curve was prepared by producing a 5-times serial dilution with ribonuclease-free purified water from the solution for quantification derived from one control sample. […]

[5] = Concentration of neutral fat in blood after bezafibrate in feed; type: in vivo, Zucker fatty rats; conditions: 0.3% in F2 powder feed for seven days; compared to the control group
Excerpt: as §1
To the two rats in the control group only F2 powder feed was given. After collecting blood samples from each of the rats under both conditions, the liver thereof was extracted, put in liquid nitrogen immediately to be frozen rapidly, and kept at -80 °C. 5 ml of TRIzol reagent (manufactured by Gibco BRL) were added to 0.1 g of the liver tissue obtained, and it was homogenized on ice using an ultra high-speed homogenizer (Polytoron, manufactured by ckinematica) (at dial 10 for 2 minutes). After incubation for 5 minutes at a room temperature, 1 ml of chloroform was added and mixed vigorously for 15 seconds.

UniProt P11152, sequence (P11152 28-474 limits assumed): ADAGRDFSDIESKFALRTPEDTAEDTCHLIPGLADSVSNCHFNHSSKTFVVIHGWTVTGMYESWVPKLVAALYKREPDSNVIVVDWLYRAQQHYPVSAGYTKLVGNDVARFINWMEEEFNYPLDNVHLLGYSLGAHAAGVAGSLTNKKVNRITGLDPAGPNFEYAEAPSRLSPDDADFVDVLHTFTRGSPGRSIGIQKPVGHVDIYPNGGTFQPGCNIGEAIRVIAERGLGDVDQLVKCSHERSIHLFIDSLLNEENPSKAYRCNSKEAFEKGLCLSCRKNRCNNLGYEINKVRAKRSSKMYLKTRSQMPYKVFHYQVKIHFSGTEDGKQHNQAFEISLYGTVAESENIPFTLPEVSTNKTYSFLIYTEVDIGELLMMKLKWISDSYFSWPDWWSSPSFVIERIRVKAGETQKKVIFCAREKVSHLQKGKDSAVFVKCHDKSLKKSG
UniProt P27656, sequence (P27656 22-510 limits assumed): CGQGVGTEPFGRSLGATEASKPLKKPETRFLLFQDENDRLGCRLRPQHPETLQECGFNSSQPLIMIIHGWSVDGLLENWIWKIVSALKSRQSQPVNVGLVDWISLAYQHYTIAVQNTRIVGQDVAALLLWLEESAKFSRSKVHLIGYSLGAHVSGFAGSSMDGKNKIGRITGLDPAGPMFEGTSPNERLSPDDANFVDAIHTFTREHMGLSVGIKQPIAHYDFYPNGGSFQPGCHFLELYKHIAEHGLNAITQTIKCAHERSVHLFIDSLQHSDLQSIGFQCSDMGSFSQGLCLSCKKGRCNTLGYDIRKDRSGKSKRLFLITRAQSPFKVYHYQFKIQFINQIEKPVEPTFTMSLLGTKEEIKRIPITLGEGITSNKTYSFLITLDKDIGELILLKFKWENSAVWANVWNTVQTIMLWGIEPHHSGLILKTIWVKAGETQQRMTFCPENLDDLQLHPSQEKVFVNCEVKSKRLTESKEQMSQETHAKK
UniProt Q06000, sequence (Q06000 28-474 limits assumed): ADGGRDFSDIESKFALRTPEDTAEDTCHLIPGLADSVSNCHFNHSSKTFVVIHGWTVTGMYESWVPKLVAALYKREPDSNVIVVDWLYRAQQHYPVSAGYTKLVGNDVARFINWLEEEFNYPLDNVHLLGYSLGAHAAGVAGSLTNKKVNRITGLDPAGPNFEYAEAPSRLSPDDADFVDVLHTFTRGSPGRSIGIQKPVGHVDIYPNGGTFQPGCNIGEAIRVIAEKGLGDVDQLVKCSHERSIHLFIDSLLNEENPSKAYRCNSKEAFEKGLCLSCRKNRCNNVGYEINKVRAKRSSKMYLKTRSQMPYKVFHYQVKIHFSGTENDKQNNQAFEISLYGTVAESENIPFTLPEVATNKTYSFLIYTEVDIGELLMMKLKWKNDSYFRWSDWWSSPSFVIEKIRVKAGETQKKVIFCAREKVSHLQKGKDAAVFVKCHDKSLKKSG

Compound “GST-ARP4Full (glutathione-S-transferase connected to the amino terminus of amino acid numbers 26-406 of SEQ ID No. 16, angiopoietin related protein 4) (from UniProt P08515 1-218)” has a relative value of LPL activity (%) at 1 µg/ml GST-ARP4Full (GST 10 µg/ml = 100 %) [1] of 67%, a relative value of LPL activity (%) at 2.5 µg/ml GST-ARP4Full (GST 10 µg/ml = 100 %) [1] of 30% and a relative value of LPL activity (%) at 5 µg/ml GST-ARP4Full (GST 10 µg/ml = 100 %) [1] of 16%. The relative value of LPL activity (%) at 10 µg/ml GST-ARP4Full (GST 10 µg/ml = 100 %) [1] was 5%.
For “human angiopoietin-related protein 3 (polypeptide consisting of amino acid numbers 17-460 of SEQ ID No. 4) (ligand)”, the relative value of HTGL activity (%) at 0 µg/ml polypeptide [2] was 100%, the relative value of HTGL activity (%) at 1 µg/ml polypeptide [2] was 109% and the relative value of HTGL activity (%) at 2.5 µg/ml polypeptide [2] was 94%. The relative value of HTGL activity (%) at 5 µg/ml polypeptide [2] was 80%, the relative value of HTGL activity (%) at 10 µg/ml polypeptide [2] was 64% and the relative value of LPL activity (%) at 0 µg/ml polypeptide [3] was 100%. The relative value of LPL activity (%) at 1 µg/ml polypeptide [3] was 93%, the relative value of LPL activity (%) at 2.5 µg/ml polypeptide [3] was 82% and the relative value of LPL activity (%) at 5 µg/ml polypeptide [3] was 70%. For the same compound, the relative value of LPL activity (%) at 10 µg/ml polypeptide [3] was 49%, the relative value of LPL activity (%) at 0 µg/ml polypeptide [1] was 100% and the relative value of LPL activity (%) at 1 µg/ml polypeptide [1] was 84%. It also gave a relative value of LPL activity (%) at 2.5 µg/ml polypeptide [1] of 64%, a relative value of LPL activity (%) at 5 µg/ml polypeptide [1] of 52% and a relative value of LPL activity (%) at 10 µg/ml polypeptide [1] of 29%.
Work on “KhAP5 CC/His (N terminal 207 amino acid partial protein of angiopoietin-related protein 3 with a histidine tag inserted after residue 20) (ligand)” yielded a relative value of LPL activity (%) at 0 µg/ml KhAP5 CC/His [1] of 100%, a relative value of LPL activity (%) at 1 µg/ml KhAP5 CC/His [1] of 27% and a relative value of LPL activity (%) at 2.5 µg/ml KhAP5 CC/His [1] of 21%. The relative value of LPL activity (%) at 5 µg/ml KhAP5 CC/His [1] was 14% and the relative value of LPL activity (%) at 10 µg/ml KhAP5 CC/His [1] was 11%.
In the case of `CC(C)(Oc1ccc(CCNC(=O)c2ccc(Cl)cc2)cc1)C(=O)O` [bezafibrate], the “level of expression of a rat "angiopoietin-related protein 3" gene decreased” value [4] is reported as 73% and the “concentration of neutral fat in blood reduced” value [5] is reported as 50%.
“GST-ARP4N (glutathione-S-transferase connected to the amino terminus of amino acid numbers 26-143 of SEQ ID No. 16, angiopoietin related protein 4) (from UniProt P08515 1-218)” showed an LPL activity (%) at 1 µg/ml GST-ARP4N (GST 10 µg/ml = 100 %) [1] of 74%, an LPL activity (%) at 2.5 µg/ml GST-ARP4N (GST 10 µg/ml = 100 %) [1] of 61% and an LPL activity (%) at 5 µg/ml GST-ARP4N (GST 10 µg/ml = 100 %) [1] of 34%. The LPL activity (%) at 10 µg/ml GST-ARP4N (GST 10 µg/ml = 100 %) [1] was 16%.
